Assay results: PMC8172134

Biological target: SARS-CoV spike prefusion stabilized ectodomain trimer (SARS-CoV) (UniProt P59594)
Assay: cryo-EM structure

47D11 Fab fragment
stoichiometry N (Fab per spike trimer): 3
